According to patent publication US20260274928A1 (VIR BIOTECHNOLOGY, published 2026):
Read-outs that look alike come from different tables or passages of the source.

Legend:
SARS-CoV-2 BA.1 RBD = SARS-CoV-2 BA.1 RBD (SARS-CoV-2 BA.1, UniProt P0DTC2 328-531); assay: RBD binding affinity (SPR, see Example 5)
[1] = molecular target: SARS-CoV-2 BQ.1.1 S glycoprotein (SARS-CoV-2 BQ.1.1); assay: cell-based or functional assay
[2] = molecular target: SARS-CoV-2 BA.5 S glycoprotein (SARS-CoV-2 BA.5); assay: cell-based or functional assay
[3] = molecular target: SARS-CoV-2 XBB.1.5 S glycoprotein (SARS-CoV-2 XBB.1.5); assay: cell-based or functional assay
[4] = molecular target: SARS-CoV-2 BQ.1.1 S glycoprotein (SARS-CoV-2 BQ.1.1); assay: cell-based or functional assay; remark: listed apart in the source
[5] = molecular target: SARS-CoV-2 BQ.1.1 S glycoprotein (SARS-CoV-2 BQ.1.1); assay: cell-based or functional assay; remark: listed apart in the source

| Binder | Kd (SARS-CoV-2 BA.1 RBD) [nM] | IC50 [1] [ng/mL] | IC50 [2] [ng/mL] | IC50 [3] [ng/mL] | FC vs S2V29-v1.2 [1] [fold] | FC vs S2V29-v1.2 [2] [fold] | IC50 [4] [ng/mL] | FC IC50 par/IC50 Var [5] [fold] | IC50 [5] [ng/mL] |
| --- | --- | --- | --- | --- | --- | --- | --- | --- | --- |
| S2V29-v1.2 (antibody, V domains shown) VH: EVQLVESGGSVVQPGRALRLSCAASGITFSSFGMYWVRQAPGKGLEWLGVIAYDGSNTYYADSVKGRFTISRDNSKNTLYLQMNSLRIEDTAVYYCAKDYYPLLSYYYGLDVWGQGTTVTVSS VL: QSVLTQPRSVSGSPGQSVTISCTGTSSDVGAYNYVSWYQQHPGKAPKFMIYDVDQRPSGVPDRFSGSKSGNTASLIISGLQAEDEADYYCSSYAGSYIWVFGGGTQLTVL | 0.05 | 9 | 2.6 | 5.2 |  |  |  |  |  |
| S2V29-v37.2 (antibody, V domains shown) VH: EVQLVESGGSVVQPGRALRLSCAASGITFSSFGMYWVRQAPGKGLEWLGYIAYDGSDTYYADSVKGRFTISRDNSKNTLYLQMNSLRIEDTAVYYCAKDYYPLLSYYYGLDVWGQGTTVTVSS VL: QSVLTQPRSVSGSPGQSVTISCTGTSSDVGAYNYVSWYQQHPGKAPKFMIYDVDQRPSGVPDRFSGSKSGNTASLIISGLQAEDEADYYCSSYAGSYIWVFGGGTQLTVL | 0.39 | 5.6 | 2.1 |  | 1.6 | 1.2 | 5 | 1.4 | 5.6 |
| S3L17 (antibody, V domains shown) VH: EVQLVESGGGLVQPGGSLRLSCAASEIIVSSNYMNWVRQAPGKGLEWVSVIYAGGSTFYADSVRGRFTISRDNSKNTLYLQMNSLRPDDTAIYYCARDLGPWGMDVWGQGTTVTVSS VL: DIQMTQSPSSLSASVGDRVAITCRASHGINNDLAWYQQKPGKVPKLLIYAASTLQSGVPSRFSGSGSGTDFTLTISSLQPEDVATYYCQHYSSDPRFTFGPGTKVDIK | 0.08 |  |  |  |  |  |  |  |  |
